# Measured values from PMC4266991.
# Molecular target: SUFU (UniProt Q9UMX1)
# Assay: co-immunoprecipitation, immunoblot
# Details: reference: wild-type GLI2, CCL21; sites S149
substance,measurement,value
"GLI2 (from UniProt P10070) GLI2 S149A, CCL21",binding against the reference,stronger
